Test results reported in the supplement of paper PMC11780869.

System: Bacillus subtilis
Test: cleaved RNA product abundance (RNA/gDNA barcode ratio) relative to median wild-type variant (ratio to wild type); higher = more accumulation of the downstream cleavage product
How it was run: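 Cleaved product abundance for each construct is its RNA-to-gDNA barcode ratio, scaled to the median construct carrying the unmutated site. Cleaved RNA was isolated on a gel, reverse transcribed and barcode-sequenced, with genomic DNA barcodes sequenced alongside and UMIs collapsed. The reporters were truncated aprE or tetM mRNAs with barcoded, mutagenized RNase Y cleavage-site windows integrated into the B. subtilis chromosome, and cultures grew in LB at 37°C from OD600 0.0003 to 0.3.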

[1] = experiment (reporter, strain, medium): exp 4a: truncated aprE reporter, strain BJT201 with 2% xylose (RNase J1 expressed), cleavage site: cggR-gapA (positions -7 to +36 mutated)
[2] = experiment (reporter, strain, medium): exp 8a: truncated aprE reporter, strain BJT201 with 2% xylose (RNase J1 expressed), cleavage site: glnRA (positions -5 to +31 mutated)
[3] = experiment (reporter, strain, medium): exp 2b: truncated aprE reporter, strain BJT200, cleavage site: cggR-gapA (positions -7 to +36 mutated)

Sequence	cleaved RNA product abundance [1]	cleaved RNA product abundance [2]	cleaved RNA product abundance [3]
ACAGACGAAGGAGCCGCAAAGAAGTTATTAAGGGATGAATAATCCCTCAAAATAAATAACTCTCACTTATTTAAA	0.363		
ACAGACGAAGGAGCCGCAAAGAAGTTATTAAGGGATGAATGATCCCTCAATATAAAAATCTCTCACTTATTTAAA	0.651		
ACAGACGAAGGAGCCGCAAAGACGTTATTAAGGGATCAATAATCCCTCAATATAAATATCTCTCACTTATTTAAA	0.743		
CGACATGTCCCGCTTCTTTCATTAAACTGTTAGCAACTGTTTTGCTATATACATTTACCTTTTAAGAGGAGGAAT		1.02	
ACAGACGAAGGAGCCGCAAAGTAGTTATTAAGGGATGAATATTCCCTCAATATAAATATCTCTCACTTATTTAAA			0.716
ACAGACGAAGGAGCCGCAAAGACATTATTAAGGGATGAATAATCCCTCAATATAAATATCTCTCACTTATTTAAA	0.85		
ACAGACGAAGGAGCCGCAAGAAGTTATTAAGGGATTAATAATCCCTCAATATAAATATCTCTCACTTATTTAAAG	0.71		
CGACATGTCCCGCTTCTTTCATTAATCCATTAGCCACTGTTTTGCTATATACATTTACCTTTTAAGAGGAGGAAT		0.271	
ACAGACGAAGGAGCCGCAAAGAAGTTATTAAGGGATGAAAAATCCCTCACTATAAATATCTCTCACTTATTTAAA			0.161
ACAGACGAAGGAGCCGCAAAGAATTTATTAAGGGATGAATAATCCATCAATATAAATATCTCTCACTTATTTAAA	0.269		0.204
ACAGACGAAGGAGCCGCAAAGAAGTGATTAAGTGATGAATAATCCCTCAATATAAATATCTCTCACTTATTTAAA	0.0876		0.114
ACAGACGAAGGAGCCGCAAAGAAGTTATTAAGTGATGATTAATCCCTCAATATAAATATCTCTCACTTATTTAAA			0.112
CGACATGTCCCGCTTCTTTCATTAATCCGTTAGCAACTCTTTTGCTATATACATTTAACTTTTAAGAGGAGGAAT		1.36	
CGACATGTCCCGCTTCTTTCATTATTCCGTTAGAAACTGTTTTGCTATATACATTTACCTTTTAAGAGGAGGAAT		0.309	
CGACATGTCCCGCTTCTTTCATTAATCCGTTAACAACTGTTTTGCTATATAAATTTACCTTTTAAGAGGAGGAAT		0.227	
CGACATGTCCCGCTTCTTTCATTAATCCGTTAGCAACTGTTTTACTAAATACATTTACCTTTTAAGAGGAGGAAT		0.499	
ACAGACGAAGGAGCCGCAAAGAAGTTATTAAGGGATGAAAAATCTCTCAATATAAATATCTCTCACTTATTTAAA	0.506		
ACAGACGAAGGAGCCGCAAAGAAGTTATTAAGGGAAGAACAATCCCTCAATATAAATATCTCTCACTTATTTAAA	0.73		
ACAGACGAAGGAGCCGCAAAGAAATTATTAAGGGATGAATAGTCCCTCAATATAAATATCTCTCACTTATTTAAA	0.937		
CGACATGTCCCGCTTCTTTCATTAATCCGTAAGCAACTGTTTTGCTATATACATTTAACATTTAAGAGGAGGAAT		0.275	
ACAGACGAAGGAGCCGCAAAGAAGTGATTAAGGGACGAATAATCCCTCAATATAAATATCTCTCACTTATTTAAA	0.322		
ACAGACGAAGGAGCCGCAAACAAGTTATAAAAGGATGAATAATCCCTCAATATAAATATCTCTCACTTATTTAAA			0.139
ACAGACGAAGGAGCCGCAAAGAATTTATTAAGGGATGAATAATCCCTCAATATAGATATCTCTCACTTATTTAAA	0.431		
ACAGACGAAGGAGCCGCAAAGAAGTTATTTAGGGATGAATAATTCCTCAATATAAATATCTCTCACTTATTTAAA	0.405		
CGACATGTCCCGCTTCTTTCATTATTACGTTAGCAACTGTTTTGCTATATACATTTACCTTTTAAGAGGAGGAAT		1.27	
ACAGACGAAGGAGCCGCAAAGAAGTTATTAAGGGAAGAATAAGCCCTCAATATAAATATCTCTCACTTATTTAAA	0.823		0.433
CGACATGTCCCGCTTCTTTCATTAATCCGTTAACAACTGTTTTGCTATATACATTTACCCTTTAAGAGGAGGAAT		0.198	
